In patent publication US20170363643A1:

Tests used:
[1] = target: His-tagged recombinant human SMN protein (ProteinTech, catalog # ag14333) (human) (UniProt Q16637); experiment: Erenna sandwich assay, capture MABE230 12.5 µg/mg MPs; Det Ab 1000 ng/mL; SMN 200.00 pg/mL
[2] = target: endogenous SMN protein in human CSF (human) (UniProt Q16637); experiment: Erenna sandwich assay, capture MABE230; human CSF sample 2, unspiked (endogenous SMN only)
[3] = target: endogenous SMN protein in human CSF (human) (UniProt Q16637); experiment: Erenna sandwich assay, capture MABE230; human CSF sample 5, unspiked (endogenous SMN only)
[4] = target: His-tagged recombinant human SMN protein (ProteinTech, catalog # ag14333) (human) (UniProt Q16637); experiment: Erenna sandwich assay, capture MABE230; SMN 2 pg/mL, MPs 5 µg/well, Det Ab 50 ng/mL, Cap Ab/MP 25 µg/mg
[5] = target: His-tagged recombinant human SMN protein (ProteinTech, catalog # ag14333) (human) (UniProt Q16637); experiment: Erenna sandwich assay, capture MABE230; SMN 2 pg/mL, MPs 10 µg/well, Det Ab 50 ng/mL, Cap Ab/MP 25 µg/mg
[6] = target: His-tagged recombinant human SMN protein (ProteinTech, catalog # ag14333) (human) (UniProt Q16637); experiment: Erenna sandwich assay, capture MABE230; SMN 2 pg/mL, MPs 5 µg/well, Det Ab 100 ng/mL, Cap Ab/MP 25 µg/mg
[7] = target: His-tagged recombinant human SMN protein (ProteinTech, catalog # ag14333) (human) (UniProt Q16637); experiment: Erenna sandwich assay, capture MABE230; SMN 2 pg/mL, MPs 10 µg/well, Det Ab 500 ng/mL, Cap Ab/MP 25 µg/mg
[8] = target: His-tagged recombinant human SMN protein (ProteinTech, catalog # ag14333) (human) (UniProt Q16637); experiment: Erenna sandwich assay, capture MABE230; SMN 2 pg/mL, MPs 5 µg/well, Det Ab 50 ng/mL, Cap Ab/MP 12.5 µg/mg
[9] = target: His-tagged recombinant human SMN protein (ProteinTech, catalog # ag14333) (human) (UniProt Q16637); experiment: Erenna sandwich assay, capture MABE230; SMN 2 pg/mL, MPs 10 µg/well, Det Ab 1000 ng/mL, Cap Ab/MP 25 µg/mg
[10] = target: His-tagged recombinant human SMN protein (ProteinTech, catalog # ag14333) (human) (UniProt Q16637); experiment: Erenna sandwich assay, capture MABE230; SMN 2 pg/mL, MPs 10 µg/well, Det Ab 100 ng/mL, Cap Ab/MP 12.5 µg/mg
[11] = target: His-tagged recombinant human SMN protein (ProteinTech, catalog # ag14333) (human) (UniProt Q16637); experiment: Erenna sandwich assay, capture MABE230; human CSF sample 4 spiked with recombinant SMN 5.0 pg/mL (endogenous SMN also present)
[12] = target: His-tagged recombinant human SMN protein (ProteinTech, catalog # ag14333) (human) (UniProt Q16637); experiment: Erenna sandwich assay, capture MABE230; human CSF sample 1 spiked with recombinant SMN 10.0 pg/mL (endogenous SMN also present)

- detected events (DE) (detected events) [1]: 9360
- event photons (EP) (event photons) [1]: 2.04e+07
- detected events (DE) (detected events) [2]: 240
- detected events (DE) (detected events) [3]: 479
- detected events (DE) (detected events) [4]: 560
- detected events (DE) (detected events) [5]: 776
- detected events (DE) (detected events) [6]: 817
- detected events (DE) (detected events) [7]: 2400
- detected events (DE) (detected events) [8]: 450
- detected events (DE) (detected events) [9]: 2670
- detected events (DE) (detected events) [10]: 1050
- detected events (DE) (detected events) [11]: 5810
- detected events (DE) (detected events) [12]: 9730
Substance: ProteinTech anti-SMN2 (catalog #60154-1-Ig) (antibody)
